{"source": "paper doi:10.1101/2023.02.03.526778", "target": "His-tagged recombinant human LDLR (extracellular domain, hLDLR-ECD) (human) (UniProt P01130)", "sequence (P01130 22-788)": "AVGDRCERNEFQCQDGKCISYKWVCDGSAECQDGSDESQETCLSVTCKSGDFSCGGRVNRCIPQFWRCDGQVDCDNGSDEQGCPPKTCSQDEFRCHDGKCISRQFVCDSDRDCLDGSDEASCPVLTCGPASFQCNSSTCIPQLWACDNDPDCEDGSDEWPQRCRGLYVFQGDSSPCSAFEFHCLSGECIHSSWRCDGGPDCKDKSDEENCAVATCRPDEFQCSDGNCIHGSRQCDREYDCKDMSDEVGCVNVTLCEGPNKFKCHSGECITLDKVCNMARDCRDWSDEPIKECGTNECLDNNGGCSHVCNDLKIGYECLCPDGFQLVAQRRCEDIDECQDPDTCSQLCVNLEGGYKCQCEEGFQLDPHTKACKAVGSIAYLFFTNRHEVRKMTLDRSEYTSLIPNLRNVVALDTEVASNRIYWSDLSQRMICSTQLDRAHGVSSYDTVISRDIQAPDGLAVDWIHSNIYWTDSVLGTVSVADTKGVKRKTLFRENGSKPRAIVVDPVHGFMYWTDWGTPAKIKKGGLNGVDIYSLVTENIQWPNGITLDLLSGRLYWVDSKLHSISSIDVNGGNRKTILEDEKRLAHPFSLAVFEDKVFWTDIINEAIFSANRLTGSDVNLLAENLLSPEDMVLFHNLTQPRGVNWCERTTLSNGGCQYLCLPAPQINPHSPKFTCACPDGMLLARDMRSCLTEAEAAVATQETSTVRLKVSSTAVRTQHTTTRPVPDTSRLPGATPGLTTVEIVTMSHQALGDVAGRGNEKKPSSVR", "assay": "SPR"}
{"substance": "VH4127 peptide (cyclo[(D)-Cys-Met-Thz-Arg-Leu-Arg-Gly-Pen])", "values": [{"measurement": "Kd", "value": 40.1, "unit": "nM"}]}
